{
  "source": "paper PMC6937560",
  "biological_target": "myeloperoxidase (MPO), mature form from neutrophils of healthy human donors (human) (UniProt P05164)",
  "test": "native MS; about 3 uM MPO in 150 mM ammonium acetate pH 7.5, direct infusion, Micromass LCT; monomer (light + heavy chain) to dimer",
  "data": [
    {"substance": "myeloperoxidase (MPO), mature form from neutrophils of healthy human donors (from UniProt P05164 279-745) (enzyme)", "values": [
      {"measurement": "stoichiometry N", "result": 2}
    ]}
  ]
}
